Source: article PMC12661054, “The CIP2A-TOPBP1 axis facilitates mitotic DNA repair via MiDAS and MMEJ” (Nature Communications, 2025)
One block for each substance: values may come before it.

Legend:
TOPBP1 BRCT0-1-2, 1-290 [1] = target: TOPBP1 BRCT0-1-2, 1-290 (UniProt Q92547); test: biotin-peptide pull-down, Coomassie SDS-PAGE; conditions: reference: unphosphorylated T1260 peptide; sites T1260
TOPBP1 BRCT0-1-2, 1-290 [2] = target: TOPBP1 BRCT0-1-2, 1-290 (UniProt Q92547); test: fluorescence polarisation titration; conditions: reference: pT1260 peptide, untreated; sites T1260
TOPBP1 = TOPBP1 (UniProt Q92547); test: GFP-Trap co-IP, western blot; conditions: reference: eGFP-SLX4 wild type; sites T1260

binding against the reference (TOPBP1 BRCT0-1-2, 1-290 [1]): gained
Substance: SLX4 1247-1267 (from UniProt Q8IY92) synthetic pT1260 peptide

binding against the reference (TOPBP1 BRCT0-1-2, 1-290 [2]): lost
Substance: SLX4 1253-1267 (from UniProt Q8IY92) pT1260 peptide treated with lambda phosphatase

binding against the reference (TOPBP1): lost
Substance: SLX4 (from UniProt Q8IY92) eGFP-SLX4 T1260A
